Test results taken from paper PMC12416549 (2024).

T1: TNFR1 (Homo sapiens, UniProt P19438)
T1 chain: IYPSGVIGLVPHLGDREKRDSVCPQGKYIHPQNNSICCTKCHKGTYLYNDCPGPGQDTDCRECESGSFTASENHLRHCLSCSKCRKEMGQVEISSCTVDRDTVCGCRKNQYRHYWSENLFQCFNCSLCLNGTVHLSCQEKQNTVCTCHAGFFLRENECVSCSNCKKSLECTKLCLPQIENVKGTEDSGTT

B1: R66G (designed binder)
chain: SMEEEVEKAAKEYEKKKKEAIEKHLEKLKAKDKEAAERFLKELEEAAKEYAKDEAKTMSEEEAKRGAKKYKEKVLLSELSEEEQKEIKEAEEKLVRTILKYVEEAAK
B2: K18E (designed binder)
chain: SMEEEVEKAAKEYEKKKEEAIEKHLEKLKAKDKEAAERFLKELEEAAKEYAKDEAKTMSEEEAKRRAKKYKEKVLLSELSEEEQKEIKEAEEKLVRTILKYVEEAAK
B3: K8M (designed binder)
chain: SMEEEVEMAAKEYEKKKKEAIEKHLEKLKAKDKEAAERFLKELEEAAKEYAKDEAKTMSEEEAKRRAKKYKEKVLLSELSEEEQKEIKEAEEKLVRTILKYVEEAAK
B4: M58C (designed binder)
chain: SMEEEVEKAAKEYEKKKKEAIEKHLEKLKAKDKEAAERFLKELEEAAKEYAKDEAKTCSEEEAKRRAKKYKEKVLLSELSEEEQKEIKEAEEKLVRTILKYVEEAAK
B5: K107Y (designed binder)
chain: SMEEEVEKAAKEYEKKKKEAIEKHLEKLKAKDKEAAERFLKELEEAAKEYAKDEAKTMSEEEAKRRAKKYKEKVLLSELSEEEQKEIKEAEEKLVRTILKYVEEAAY
B6: K64A (designed binder)
chain: SMEEEVEKAAKEYEKKKKEAIEKHLEKLKAKDKEAAERFLKELEEAAKEYAKDEAKTMSEEEAARRAKKYKEKVLLSELSEEEQKEIKEAEEKLVRTILKYVEEAAK
B7: V6H (designed binder)
chain: SMEEEHEKAAKEYEKKKKEAIEKHLEKLKAKDKEAAERFLKELEEAAKEYAKDEAKTMSEEEAKRRAKKYKEKVLLSELSEEEQKEIKEAEEKLVRTILKYVEEAAK
B8: D53T (designed binder)
chain: SMEEEVEKAAKEYEKKKKEAIEKHLEKLKAKDKEAAERFLKELEEAAKEYAKTEAKTMSEEEAKRRAKKYKEKVLLSELSEEEQKEIKEAEEKLVRTILKYVEEAAK
B9: E103F (designed binder)
chain: SMEEEVEKAAKEYEKKKKEAIEKHLEKLKAKDKEAAERFLKELEEAAKEYAKDEAKTMSEEEAKRRAKKYKEKVLLSELSEEEQKEIKEAEEKLVRTILKYVFEAAK
B10: K11P (designed binder)
chain: SMEEEVEKAAPEYEKKKKEAIEKHLEKLKAKDKEAAERFLKELEEAAKEYAKDEAKTMSEEEAKRRAKKYKEKVLLSELSEEEQKEIKEAEEKLVRTILKYVEEAAK
B11: S1P (designed binder)
chain: PMEEEVEKAAKEYEKKKKEAIEKHLEKLKAKDKEAAERFLKELEEAAKEYAKDEAKTMSEEEAKRRAKKYKEKVLLSELSEEEQKEIKEAEEKLVRTILKYVEEAAK
B12: A10C (designed binder)
chain: SMEEEVEKACKEYEKKKKEAIEKHLEKLKAKDKEAAERFLKELEEAAKEYAKDEAKTMSEEEAKRRAKKYKEKVLLSELSEEEQKEIKEAEEKLVRTILKYVEEAAK
B13: I21T (designed binder)
chain: SMEEEVEKAAKEYEKKKKEATEKHLEKLKAKDKEAAERFLKELEEAAKEYAKDEAKTMSEEEAKRRAKKYKEKVLLSELSEEEQKEIKEAEEKLVRTILKYVEEAAK
B14: E44T (designed binder)
chain: SMEEEVEKAAKEYEKKKKEAIEKHLEKLKAKDKEAAERFLKELTEAAKEYAKDEAKTMSEEEAKRRAKKYKEKVLLSELSEEEQKEIKEAEEKLVRTILKYVEEAAK
B15: R38V (designed binder)
chain: SMEEEVEKAAKEYEKKKKEAIEKHLEKLKAKDKEAAEVFLKELEEAAKEYAKDEAKTMSEEEAKRRAKKYKEKVLLSELSEEEQKEIKEAEEKLVRTILKYVEEAAK
B16: R96H (designed binder)
chain: SMEEEVEKAAKEYEKKKKEAIEKHLEKLKAKDKEAAERFLKELEEAAKEYAKDEAKTMSEEEAKRRAKKYKEKVLLSELSEEEQKEIKEAEEKLVHTILKYVEEAAK
B17: V6T (designed binder)
chain: SMEEETEKAAKEYEKKKKEAIEKHLEKLKAKDKEAAERFLKELEEAAKEYAKDEAKTMSEEEAKRRAKKYKEKVLLSELSEEEQKEIKEAEEKLVRTILKYVEEAAK
B18: K64W (designed binder)
chain: SMEEEVEKAAKEYEKKKKEAIEKHLEKLKAKDKEAAERFLKELEEAAKEYAKDEAKTMSEEEAWRRAKKYKEKVLLSELSEEEQKEIKEAEEKLVRTILKYVEEAAK
B19: E104A (designed binder)
chain: SMEEEVEKAAKEYEKKKKEAIEKHLEKLKAKDKEAAERFLKELEEAAKEYAKDEAKTMSEEEAKRRAKKYKEKVLLSELSEEEQKEIKEAEEKLVRTILKYVEAAAK
B20: A106E (designed binder)
chain: SMEEEVEKAAKEYEKKKKEAIEKHLEKLKAKDKEAAERFLKELEEAAKEYAKDEAKTMSEEEAKRRAKKYKEKVLLSELSEEEQKEIKEAEEKLVRTILKYVEEAEK
B21: S77L (designed binder)
chain: SMEEEVEKAAKEYEKKKKEAIEKHLEKLKAKDKEAAERFLKELEEAAKEYAKDEAKTMSEEEAKRRAKKYKEKVLLLELSEEEQKEIKEAEEKLVRTILKYVEEAAK
B22: I21S (designed binder)
chain: SMEEEVEKAAKEYEKKKKEASEKHLEKLKAKDKEAAERFLKELEEAAKEYAKDEAKTMSEEEAKRRAKKYKEKVLLSELSEEEQKEIKEAEEKLVRTILKYVEEAAK
B23: Y70F (designed binder)
chain: SMEEEVEKAAKEYEKKKKEAIEKHLEKLKAKDKEAAERFLKELEEAAKEYAKDEAKTMSEEEAKRRAKKFKEKVLLSELSEEEQKEIKEAEEKLVRTILKYVEEAAK
B24: A46M (designed binder)
chain: SMEEEVEKAAKEYEKKKKEAIEKHLEKLKAKDKEAAERFLKELEEMAKEYAKDEAKTMSEEEAKRRAKKYKEKVLLSELSEEEQKEIKEAEEKLVRTILKYVEEAAK
B25: Y50R (designed binder)
chain: SMEEEVEKAAKEYEKKKKEAIEKHLEKLKAKDKEAAERFLKELEEAAKERAKDEAKTMSEEEAKRRAKKYKEKVLLSELSEEEQKEIKEAEEKLVRTILKYVEEAAK
B26: E103C (designed binder)
chain: SMEEEVEKAAKEYEKKKKEAIEKHLEKLKAKDKEAAERFLKELEEAAKEYAKDEAKTMSEEEAKRRAKKYKEKVLLSELSEEEQKEIKEAEEKLVRTILKYVCEAAK
B27: K33P (designed binder)
chain: SMEEEVEKAAKEYEKKKKEAIEKHLEKLKAKDPEAAERFLKELEEAAKEYAKDEAKTMSEEEAKRRAKKYKEKVLLSELSEEEQKEIKEAEEKLVRTILKYVEEAAK
B28: T97N (designed binder)
chain: SMEEEVEKAAKEYEKKKKEAIEKHLEKLKAKDKEAAERFLKELEEAAKEYAKDEAKTMSEEEAKRRAKKYKEKVLLSELSEEEQKEIKEAEEKLVRNILKYVEEAAK
B29: A9K (designed binder)
chain: SMEEEVEKKAKEYEKKKKEAIEKHLEKLKAKDKEAAERFLKELEEAAKEYAKDEAKTMSEEEAKRRAKKYKEKVLLSELSEEEQKEIKEAEEKLVRTILKYVEEAAK
B30: E72T (designed binder)
chain: SMEEEVEKAAKEYEKKKKEAIEKHLEKLKAKDKEAAERFLKELEEAAKEYAKDEAKTMSEEEAKRRAKKYKTKVLLSELSEEEQKEIKEAEEKLVRTILKYVEEAAK
B31: K88S (designed binder)
chain: SMEEEVEKAAKEYEKKKKEAIEKHLEKLKAKDKEAAERFLKELEEAAKEYAKDEAKTMSEEEAKRRAKKYKEKVLLSELSEEEQKEISEAEEKLVRTILKYVEEAAK
B32: E82Q (designed binder)
chain: SMEEEVEKAAKEYEKKKKEAIEKHLEKLKAKDKEAAERFLKELEEAAKEYAKDEAKTMSEEEAKRRAKKYKEKVLLSELSEQEQKEIKEAEEKLVRTILKYVEEAAK
B33: K73F (designed binder)
chain: SMEEEVEKAAKEYEKKKKEAIEKHLEKLKAKDKEAAERFLKELEEAAKEYAKDEAKTMSEEEAKRRAKKYKEFVLLSELSEEEQKEIKEAEEKLVRTILKYVEEAAK

Target: T1, TNFR1
Assay: yeast display SC50

In order of rising “apparent Kd (screen)” value:
1. B24  0.117 nM
2. B7  0.446 nM
3. B18  0.446 nM
4. B22  0.446 nM
5. B29  0.446 nM
6. B13  0.49 nM
7. B17  0.49 nM
8. B31  0.49 nM
9. B32  0.49 nM
10. B11  0.539 nM
11. B27  0.593 nM
12. B19  0.79 nM
13. B6  0.956 nM
14. B14  0.956 nM
15. B3  1.05 nM
16. B9  1.05 nM
17. B12  1.05 nM
18. B28  1.16 nM
19. B20  1.27 nM
20. B30  1.27 nM
21. B2  1.86 nM
22. B25  2.25 nM
23. B15  2.48 nM
24. B16  2.48 nM
25. B4  2.73 nM
26. B5  2.73 nM
27. B8  2.73 nM
28. B1  7.07 nM
29. B21  7.07 nM
30. B26  7.78 nM
31. B23  12.5 nM
32. B33  15.2 nM
33. B10  18.3 nM
